These results are taken from article doi:10.1101/2023.07.17.549240.

Data set [1] has as its target T1, WRKY45 (Arabidopsis thaliana, UniProt Q9S763 1-147). As to the kind of experiment: competition.
Data set [2] has as its target T1, WRKY45. As to the kind of experiment: EMSA.

T1 sequence (Q9S763 whole entry): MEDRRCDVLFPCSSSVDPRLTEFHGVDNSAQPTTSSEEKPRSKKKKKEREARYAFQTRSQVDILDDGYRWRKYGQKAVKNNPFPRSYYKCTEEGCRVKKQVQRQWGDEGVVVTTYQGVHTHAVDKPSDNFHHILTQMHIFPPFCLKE

B1: PCS2 W-box1 cold competitor (dsDNA)
DNA 1: ATTGTCAGAGTTTGACTATGGAGCAAAC
DNA 2: GTTTGCTCCATAGTCAAACTCTGACAAT
For B1, the binding result with WRKY45 [1] is listed as “binds”.

B2: PCS2 mW-box1 probe (dsDNA)
DNA 1: ATTGTCAGAGTCGCGGAATGGAGCAAAC
DNA 2: GTTTGCTCCATTCCGCGACTCTGACAAT
Turning to B2, the binding result with WRKY45 [2] was “no binding”.

B3: PCS1 W-box probe (dsDNA)
DNA 1: TACAATCCAAATTGACTGTAATTTGTTA
DNA 2: TAACAAATTACAGTCAATTTGGATTGTA
On to B3, for which the binding result in the data set with WRKY45 [2] is reported as “no binding”.

B4: PCS2 W-box1 (W1) probe (dsDNA)
DNA 1: ATTGTCAGAGTTTGACTATGGAGCAAAC
DNA 2: GTTTGCTCCATAGTCAAACTCTGACAAT
With B4, the binding result with WRKY45 [2] was “binds”.
